Measured values taken from patent US20170275356A1.

Target: human IL-23 (human) (UniProt P29460)
Test: cell-based or functional assay

Sequence of human IL-23 (human) (chain, as listed by the source limits assumed, chain 1 of 2): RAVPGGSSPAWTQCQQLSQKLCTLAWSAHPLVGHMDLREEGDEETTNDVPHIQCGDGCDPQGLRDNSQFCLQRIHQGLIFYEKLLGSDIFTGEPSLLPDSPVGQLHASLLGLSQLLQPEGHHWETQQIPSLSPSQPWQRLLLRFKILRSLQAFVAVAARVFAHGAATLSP
Sequence of human IL-23 (human) (P29460 23-328 limits assumed, chain 2 of 2): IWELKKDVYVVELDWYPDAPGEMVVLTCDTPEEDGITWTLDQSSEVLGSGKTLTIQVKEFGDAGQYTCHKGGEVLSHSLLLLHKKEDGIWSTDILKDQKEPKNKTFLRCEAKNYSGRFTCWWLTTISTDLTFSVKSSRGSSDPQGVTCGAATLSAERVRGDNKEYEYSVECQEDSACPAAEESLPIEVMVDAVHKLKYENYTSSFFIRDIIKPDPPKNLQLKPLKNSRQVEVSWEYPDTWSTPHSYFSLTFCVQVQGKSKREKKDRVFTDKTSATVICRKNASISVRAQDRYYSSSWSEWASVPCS

Q: For isotype control antibody, which Ct value, murine IL-17A mRNA in skin injected with human IL-23 (in vivo neutralization) is on record?
A: 35.4 Ct

Q: What about the Ct value, murine IL-17F mRNA in skin injected with human IL-23 (in vivo neutralization) of the same substance?
A: 31.6 Ct
